Reference: the supplement of paper PMC9112550, “Optimization of the antimicrobial peptide Bac7 by deep mutational scanning” (BMC Biology, 2022)

These sequences were tested on Escherichia coli TOP10 (assay: shrunken log2 fold change of peptide-encoding DNA abundance (4.5 h post-induction vs induction); higher = less antimicrobial activity (less host growth inhibition)). Conditions: time post-induction: 4.5 h; library: site-saturation at positions 5, 18, 19, 20.
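Also: peptides expressed intracellularly from a pBAD plasmid library in pooled LB shake-flask culture, induced with 0.3% L-arabinose, DNA abundance read by NGS, three biological replicates, DESeq2 with apeglm shrinkage.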

Row | Sequence | shrunken log2 fold change
1 | RRIRTRPPRLPRPRPRPHQYPRP | -0.259
2 | RRIRERPPRLPRPRPRPKYQPRP | -0.601
3 | RRIRYRPPRLPRPRPRPYTGPRP | -0.0103
4 | RRIRHRPPRLPRPRPRPFAFPRP | -0.121
5 | RRIRYRPPRLPRPRPRPMAHPRP | -0.0234
6 | RRIRNRPPRLPRPRPRPRRPPRP | 0.3
7 | RRIRDRPPRLPRPRPRPPSKPRP | 0.0904
8 | RRIRCRPPRLPRPRPRPSATPRP | 0.593
9 | RRIRQRPPRLPRPRPRPQPYPRP | -0.0274
10 | RRIRTRPPRLPRPRPRPHNAPRP | -0.391
11 | RRIRHRPPRLPRPRPRPKPEPRP | 0.0966
12 | RRIRGRPPRLPRPRPRPAVTPRP | 0.688
13 | RRIRFRPPRLPRPRPRPQARPRP | 0.148
14 | RRIRYRPPRLPRPRPRPFPIPRP | -0.705
15 | RRIRPRPPRLPRPRPRPQQTPRP | 0.183
16 | RRIRGRPPRLPRPRPRPMELPRP | 0.271
17 | RRIRHRPPRLPRPRPRPPYVPRP | -0.0952
18 | RRIRWRPPRLPRPRPRPKARPRP | 0.836
19 | RRIRCRPPRLPRPRPRPWYIPRP | -0.331
20 | RRIRHRPPRLPRPRPRPNITPRP | -0.489

Row | Sequence | shrunken log2 fold change
21 | RRIRCRPPRLPRPRPRPAHGPRP | 0.23
22 | RRIRSRPPRLPRPRPRPEPFPRP | 0.621
23 | RRIRSRPPRLPRPRPRPEGLPRP | -0.0431
24 | RRIRFRPPRLPRPRPRPNVHPRP | -0.339
25 | RRIRLRPPRLPRPRPRPQMCPRP | -0.0742
26 | RRIRWRPPRLPRPRPRPHWGPRP | 0.171
27 | RRIRPRPPRLPRPRPRPSIMPRP | -0.552
28 | RRIRNRPPRLPRPRPRPYYYPRP | -0.0857
29 | RRIRCRPPRLPRPRPRPDIFPRP | -0.262
30 | RRIRTRPPRLPRPRPRPRVWPRP | 0.382
31 | RRIRYRPPRLPRPRPRPAYKPRP | -0.14
32 | RRIRMRPPRLPRPRPRPTVAPRP | 0.269
33 | RRIRSRPPRLPRPRPRPRQYPRP | -0.274
34 | RRIRDRPPRLPRPRPRPRFSPRP | -0.037
35 | RRIRRRPPRLPRPRPRPCVIPRP | -0.0371
36 | RRIRWRPPRLPRPRPRPGPDPRP | 0.533
37 | RRIRCRPPRLPRPRPRPREPPRP | 0.211
38 | RRIRMRPPRLPRPRPRPNHWPRP | 0.14
39 | RRIRKRPPRLPRPRPRPGAVPRP | 0.749
40 | RRIRTRPPRLPRPRPRPSHDPRP | -0.459

Row | Sequence | shrunken log2 fold change
41 | RRIRKRPPRLPRPRPRPAYDPRP | -0.116
42 | RRIRDRPPRLPRPRPRPLKTPRP | 0.333
43 | RRIRSRPPRLPRPRPRPAKHPRP | -0.0685
44 | RRIRCRPPRLPRPRPRPSLPPRP | -0.0253
45 | RRIRFRPPRLPRPRPRPISNPRP | -0.48
46 | RRIRLRPPRLPRPRPRPPNFPRP | 0.0275
47 | RRIRDRPPRLPRPRPRPTLWPRP | 2.36
48 | RRIRCRPPRLPRPRPRPYGFPRP | -0.515
49 | RRIRCRPPRLPRPRPRPIDSPRP | -0.197
50 | RRIRYRPPRLPRPRPRPVFLPRP | -0.538
51 | RRIRARPPRLPRPRPRPAYLPRP | 0.365
52 | RRIRTRPPRLPRPRPRPFFVPRP | -0.142
53 | RRIRERPPRLPRPRPRPSVHPRP | -0.329
54 | RRIRWRPPRLPRPRPRPWIPPRP | -0.0989
55 | RRIRLRPPRLPRPRPRPKVIPRP | -0.185
56 | RRIRKRPPRLPRPRPRPIPQPRP | -0.184
57 | RRIRGRPPRLPRPRPRPEHSPRP | 0.114
58 | RRIRCRPPRLPRPRPRPAEKPRP | -0.0214
59 | RRIRFRPPRLPRPRPRPQRHPRP | -0.0437
60 | RRIRDRPPRLPRPRPRPYPYPRP | -0.0176
